In patent US20260242454A1:

Experiments:
[1] = target: recombinant human TGF-β1 (human) (UniProt P01137); experiment: ELISA, TGF-β1 coated on plate, anti-human IgG Fc-HRP detection
[2] = target: recombinant human TGF-β3 (human) (UniProt P10600); experiment: ELISA, TGF-β3 coated on plate, anti-human IgG Fc-HRP detection
Sequence of UniProt P10600 (P10600 301-412 limits assumed): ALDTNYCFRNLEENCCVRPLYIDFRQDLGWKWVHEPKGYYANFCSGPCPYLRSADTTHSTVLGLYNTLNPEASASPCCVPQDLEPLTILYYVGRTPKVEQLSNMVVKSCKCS

Sequence of UniProt P01137 (P01137 279-390 limits assumed): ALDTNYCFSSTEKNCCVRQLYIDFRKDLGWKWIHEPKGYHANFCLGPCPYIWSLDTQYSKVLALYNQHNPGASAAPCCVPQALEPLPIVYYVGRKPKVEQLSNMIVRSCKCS

EC50 [1]: 2.08 nM
EC50 [2]: 3.32 nM
Substance: M7824
